The text below walks through data of article doi:10.1101/2025.08.30.673307 (bioRxiv, 2025).

This series concerns the molecule itself. As to the kind of experiment: cryo-EM structure.

B1: stomatin (STOM) fused at its C terminus with a Twin-Strep tag (natural protein, human, UniProt P27105 1-288, looked up)
chain: MAEKRHTRDSEAQRLPDSFKDSPSKGLGPCGWILVAFSFLFTVITFPISIWMCIKIIKEYERAIIFRLGRILQGGAKGPGLFFILPCTDSFIKVDMRTISFDIPPQEILTKDSVTISVDGVVYYRVQNATLAVANITNADSATRLLAQTTLRNVLGTKNLSQILSDREEIAHNMQSTLDDATDAWGIKVERVEIKDVKLPVQLQRAMAAEAEASREARAKVIAAEGEMNASRALKEASMVITESPAALQLRYLQTLTTIAAEKNSTIVFPLPIDMLQGIIGAKHSHLG
What is called stoichiometry N is a count of units in the complex or per binding partner. With B1, the “stoichiometry N” value came to 16 subunits.
